Assay results taken from article PMC10250397.

Target: SERCA2-mTurquoise2 (UniProt P16615)
Experiment: FRET or BRET; three channel sensitized emission FRET on living HEK293-T cells, SERCA2-mTurquoise2 donor and GSK3β-sYFP2 acceptor, confocal microscope; normoxia or 60 min hypoxia followed by 30 min reoxygenation

Chain of UniProt P16615 (P16615 whole entry): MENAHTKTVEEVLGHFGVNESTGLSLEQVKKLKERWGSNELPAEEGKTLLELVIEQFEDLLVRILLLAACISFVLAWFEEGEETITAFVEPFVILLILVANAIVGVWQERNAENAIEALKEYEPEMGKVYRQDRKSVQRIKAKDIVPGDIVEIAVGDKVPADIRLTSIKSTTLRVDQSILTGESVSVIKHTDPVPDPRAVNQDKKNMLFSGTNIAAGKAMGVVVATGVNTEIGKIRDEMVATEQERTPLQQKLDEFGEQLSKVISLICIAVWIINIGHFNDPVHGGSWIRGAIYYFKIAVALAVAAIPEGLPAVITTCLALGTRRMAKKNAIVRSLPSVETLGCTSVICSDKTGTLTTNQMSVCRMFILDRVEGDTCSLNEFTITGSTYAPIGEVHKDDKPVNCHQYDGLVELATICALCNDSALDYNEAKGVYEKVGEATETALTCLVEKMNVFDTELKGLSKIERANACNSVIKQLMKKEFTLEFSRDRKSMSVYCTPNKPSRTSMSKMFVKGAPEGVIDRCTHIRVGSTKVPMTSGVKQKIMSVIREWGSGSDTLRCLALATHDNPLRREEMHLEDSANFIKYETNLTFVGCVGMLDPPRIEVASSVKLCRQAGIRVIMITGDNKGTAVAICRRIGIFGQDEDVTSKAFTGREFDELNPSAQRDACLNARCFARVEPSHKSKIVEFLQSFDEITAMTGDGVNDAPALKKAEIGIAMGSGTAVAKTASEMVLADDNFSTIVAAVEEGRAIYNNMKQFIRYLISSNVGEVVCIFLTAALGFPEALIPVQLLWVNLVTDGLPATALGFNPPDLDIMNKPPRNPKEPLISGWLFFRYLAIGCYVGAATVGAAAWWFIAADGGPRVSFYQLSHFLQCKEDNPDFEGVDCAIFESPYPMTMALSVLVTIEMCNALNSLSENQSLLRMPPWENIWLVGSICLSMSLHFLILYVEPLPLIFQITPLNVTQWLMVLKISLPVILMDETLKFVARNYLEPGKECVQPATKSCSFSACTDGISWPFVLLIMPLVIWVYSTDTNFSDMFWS
Chain of GSK3β-sYFP2 (P49841 whole entry): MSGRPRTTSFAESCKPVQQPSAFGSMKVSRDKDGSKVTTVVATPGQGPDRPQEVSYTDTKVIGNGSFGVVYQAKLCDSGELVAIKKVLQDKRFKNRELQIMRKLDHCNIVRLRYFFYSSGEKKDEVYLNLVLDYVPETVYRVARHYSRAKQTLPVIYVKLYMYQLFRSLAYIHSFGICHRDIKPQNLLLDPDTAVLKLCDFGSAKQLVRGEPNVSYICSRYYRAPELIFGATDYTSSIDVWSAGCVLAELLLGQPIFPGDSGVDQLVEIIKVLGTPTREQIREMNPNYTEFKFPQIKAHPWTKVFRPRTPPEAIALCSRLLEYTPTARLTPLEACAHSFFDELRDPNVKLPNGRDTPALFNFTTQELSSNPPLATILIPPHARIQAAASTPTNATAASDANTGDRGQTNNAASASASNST

| Substance | fold change of FRET efficiency after H/R against normoxia | FRET efficiency |
| --- | --- | --- |
| GSK3β-sYFP2 (from UniProt P49841 1-420) (enzyme) | 3 fold |  |
| GSK3β-sYFP2 (from UniProt P49841 1-420) (living HEK293-T cells) |  | 3.11% |
